Laboratory results: patent US20180258158A1 (Bristol-Myers Squibb, published 2018)
Positions count from the first letter of the chain named. In names and notes the source's numbering stands. Values belong to the binder of their own block, whether it stands above or below them.

How the values were obtained:
[1] = biological target: T1, mouse serum albumin (MSA), full length (mouse, UniProt P07724 25-608); assay: direct binding ELISA, coated MSA, anti-His-HRP; parameters: unit not given here
T1 construct: mature; Immobilized on CM5 chip (SPR) or coated on plates (ELISA); also called mouse albumin; murine serum albumin
Target sequence in this assay (P07724 25-608): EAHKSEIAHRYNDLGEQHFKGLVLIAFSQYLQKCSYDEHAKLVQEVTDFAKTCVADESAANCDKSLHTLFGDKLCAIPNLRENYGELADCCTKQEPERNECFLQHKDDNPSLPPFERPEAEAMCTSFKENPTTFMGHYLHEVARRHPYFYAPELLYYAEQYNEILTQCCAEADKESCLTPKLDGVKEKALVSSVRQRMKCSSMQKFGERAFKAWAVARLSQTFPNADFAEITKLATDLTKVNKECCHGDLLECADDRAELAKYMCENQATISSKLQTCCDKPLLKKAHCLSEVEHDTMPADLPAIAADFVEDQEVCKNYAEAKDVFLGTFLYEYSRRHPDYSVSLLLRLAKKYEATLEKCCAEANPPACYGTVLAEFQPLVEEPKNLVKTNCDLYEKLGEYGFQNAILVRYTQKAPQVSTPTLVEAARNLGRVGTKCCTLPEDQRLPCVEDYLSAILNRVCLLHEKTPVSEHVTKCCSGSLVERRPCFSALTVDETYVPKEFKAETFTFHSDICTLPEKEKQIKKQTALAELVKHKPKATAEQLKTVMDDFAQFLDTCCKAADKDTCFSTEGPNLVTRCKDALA

[2] = biological target: T2, human serum albumin (HSA), full length (human, UniProt P02768 25-609); assay: SPR, immobilized HSA, 500 nM Adnectin, 25 C
T2 construct: mature; Immobilized on CM5 chip (SPR) or coated on plates (ELISA)
Procedure: (§1) Measurements were conducted by SPR and ELISA. SPR was conducted as follows. Full length HSA or mouse albumin was immobilized on a Biacore T series CM5 chip at 15 ug/mL in 10 mM acetate buffer (pH 5.0) buffer using standard NHS/EDC coupling, to a surface density of approximately 1000-1100 RU. For off-rate measurements at 25° C., PKE Adnectins were applied as analytes at 500 nM in HBS-P+(0.01 M HEPES pH 7.4, 0.15 M NaCl, 0.005% v/v Surfactant P20) running buffer at a flow rate of 20ul/min for 120 s over the immobilized albumins, followed by 800 s for dissociation. […] Regeneration of the chip surface between cycles was accomplished with two 30 second pulses of 10 mM Glycine, pH 2.0. Kinetic traces of reference-subtracted sensorgrams were fit to a 1:1 binding model for affinity using the Biaevaluation software. Only the dissociation phase was fit for determination of off-rates.

[3] = biological target: T3, cynomolgus monkey serum albumin (cynoSA), full length (cynomolgus monkey, UniProt A2V9Z4 25-608); assay: SPR kinetics (Biacore, CM5): ligand '15ug/ml CynoSA in Acetate 5.0' immobilised, Adnectin concentration series as analyte, 37 C, 1:1 binding fit; curve Fc=2-1 [panel Cyno SA]
T3 construct: mature; Immobilized on CM5 chip (SPR); the cynoSA experiment used a different Biacore chip; also called CySA
Procedure: as §1, with “The SPR” for “Measurements were conducted by SPR and ELISA. SPR”, “length human, mouse, rat and cynomolgus monkey serum” for “length HSA or mouse”, “albumin were” for “albumin was”

[4] = biological target: T1, mouse serum albumin (MSA), full length; assay: SPR, immobilized MSA, 500 nM Adnectin, 25 C
Procedure: as §1

[5] = biological target: T1, mouse serum albumin (MSA), full length; assay: SPR off-rate, immobilized MSA, 500 nM Adnectin, 25 C
Procedure: as §1

[6] = biological target: T1, mouse serum albumin (MSA), full length; assay: SPR kinetics, immobilized albumin, 1:1 fit, 37 C
Procedure: as §1, with “The SPR” for “Measurements were conducted by SPR and ELISA. SPR”, “length human, mouse, rat and cynomolgus monkey serum” for “length HSA or mouse”, “albumin were” for “albumin was”

[7] = biological target: T2, human serum albumin (HSA), full length; assay: SPR kinetics, immobilized albumin, 1:1 fit, 37 C
Procedure: as §1, with “The SPR” for “Measurements were conducted by SPR and ELISA. SPR”, “length human, mouse, rat and cynomolgus monkey serum” for “length HSA or mouse”, “albumin were” for “albumin was”

[8] = biological target: T4, rat serum albumin (rat SA), full length (rat, UniProt P02770 25-608); assay: SPR kinetics, immobilized albumin, 1:1 fit, 37 C
T4 construct: mature; Immobilized on CM5 chip (SPR); also called RSA
Procedure: as §1, with “The SPR” for “Measurements were conducted by SPR and ELISA. SPR”, “length human, mouse, rat and cynomolgus monkey serum” for “length HSA or mouse”, “albumin were” for “albumin was”

[9] = biological target: T3, cynomolgus monkey serum albumin …; assay: SPR kinetics, immobilized albumin, 1:1 fit, 37 C
Procedure: as §1, with “The SPR” for “Measurements were conducted by SPR and ELISA. SPR”, “length human, mouse, rat and cynomolgus monkey serum” for “length HSA or mouse”, “albumin were” for “albumin was”

[10] = biological target: T2, human serum albumin (HSA), full length; assay: not stated; lower end of the range 3-6 nM
[11] = biological target: T2, human serum albumin (HSA), full length; assay: SPR kinetics (Biacore, CM5): albumin immobilised, Adnectin concentration series as analyte, 37 C, 1:1 binding fit; curve Fc=2-1 [panel HSA]
Procedure: as §1, with “The SPR” for “Measurements were conducted by SPR and ELISA. SPR”, “length human, mouse, rat and cynomolgus monkey serum” for “length HSA or mouse”, “albumin were” for “albumin was”

[12] = biological target: T2, human serum albumin (HSA), full length; assay: not stated; upper end of the range 3-6 nM
[13] = biological target: T4, rat serum albumin (rat SA), full length; assay: SPR kinetics (Biacore, CM5): albumin immobilised, Adnectin concentration series as analyte, 37 C, 1:1 binding fit; curve Fc=4-1 [panel Rat SA]
Procedure: as §1, with “The SPR” for “Measurements were conducted by SPR and ELISA. SPR”, “length human, mouse, rat and cynomolgus monkey serum” for “length HSA or mouse”, “albumin were” for “albumin was”

[14] = biological target: T1, mouse serum albumin (MSA), full length; assay: SPR kinetics (Biacore, CM5): albumin immobilised, Adnectin concentration series as analyte, 37 C, 1:1 binding fit; curve Fc=3-1 [panel MSA]
Procedure: as §1, with “The SPR” for “Measurements were conducted by SPR and ELISA. SPR”, “length human, mouse, rat and cynomolgus monkey serum” for “length HSA or mouse”, “albumin were” for “albumin was”

[15] = biological target: T2, human serum albumin (HSA), full length; assay: SPR off-rate, immobilized HSA, 500 nM Adnectin, 25 C
Procedure: as §1

[16] = biological target: T1, mouse serum albumin (MSA), full length; assay: direct binding ELISA, coated MSA, anti-His-HRP
Procedure: Direct binding ELISA assays were conducted as follows. Full length human and murine serum albumin at 10ug/ml in PBS were coated on Nunc Maxisorp plates overnight at 4° C. Plates were blocked in casein/PBS buffer. PKE Adnectins were allowed to bind over a 4-point concentration range of 0.032-4 uM for HSA and 0.008-1 uM for MSA. Bound Adnectin was detected by anti-His antibody conjugated with HRP (horseradish peroxidase) diluted 1:1500 in casein/PBS. Plates were developed with TMB substrate and absorbance read at 450 nm. Adnectins were binned as high, medium and low affinity binders based on the observed Ymax of the concentration response curves.

[17] = biological target: T2, human serum albumin (HSA), full length; assay: SPR off-rate ratio to parent ADX_7016_A01, HSA, 25 C
Procedure: as §1

[18] = biological target: T1, mouse serum albumin (MSA), full length; assay: SPR off-rate ratio to parent ADX_7016_A01, MSA, 25 C
Procedure: as §1

[19] = biological target: T3, cynomolgus monkey serum albumin …; assay: SPR kinetics (Biacore, CM5): ligand '15ug/ml Cyno SA in Acetate 5.0' immobilised, Adnectin concentration series as analyte, 37 C, 1:1 binding fit; curve Fc=2-1 [panel Cyno SA]
Procedure: as §1, with “The SPR” for “Measurements were conducted by SPR and ELISA. SPR”, “length human, mouse, rat and cynomolgus monkey serum” for “length HSA or mouse”, “albumin were” for “albumin was”

[20] = biological target: T3, cynomolgus monkey serum albumin …; assay: SPR kinetics (Biacore, CM5): ligand '15ug/ml CynoSA in Acetate 5.0' immobilised, Adnectin concentration series as analyte, 37 C, 1:1 binding model; curve Fc=2-1 [panel Cyno SA]
Procedure: as §1, with “The SPR” for “Measurements were conducted by SPR and ELISA. SPR”, “length human, mouse, rat and cynomolgus monkey serum” for “length HSA or mouse”, “albumin were” for “albumin was”

[21] = biological target: T3, cynomolgus monkey serum albumin …; assay: SPR kinetics (Biacore, CM5): ligand '15ug/ml CynoSA in Acetate5.0' immobilised, Adnectin concentration series as analyte, 37 C, 1:1 binding model; curve Fc=2-1 [panel Cyno SA]
Procedure: as §1, with “The SPR” for “Measurements were conducted by SPR and ELISA. SPR”, “length human, mouse, rat and cynomolgus monkey serum” for “length HSA or mouse”, “albumin were” for “albumin was”

T3 sequence (A2V9Z4 25-608): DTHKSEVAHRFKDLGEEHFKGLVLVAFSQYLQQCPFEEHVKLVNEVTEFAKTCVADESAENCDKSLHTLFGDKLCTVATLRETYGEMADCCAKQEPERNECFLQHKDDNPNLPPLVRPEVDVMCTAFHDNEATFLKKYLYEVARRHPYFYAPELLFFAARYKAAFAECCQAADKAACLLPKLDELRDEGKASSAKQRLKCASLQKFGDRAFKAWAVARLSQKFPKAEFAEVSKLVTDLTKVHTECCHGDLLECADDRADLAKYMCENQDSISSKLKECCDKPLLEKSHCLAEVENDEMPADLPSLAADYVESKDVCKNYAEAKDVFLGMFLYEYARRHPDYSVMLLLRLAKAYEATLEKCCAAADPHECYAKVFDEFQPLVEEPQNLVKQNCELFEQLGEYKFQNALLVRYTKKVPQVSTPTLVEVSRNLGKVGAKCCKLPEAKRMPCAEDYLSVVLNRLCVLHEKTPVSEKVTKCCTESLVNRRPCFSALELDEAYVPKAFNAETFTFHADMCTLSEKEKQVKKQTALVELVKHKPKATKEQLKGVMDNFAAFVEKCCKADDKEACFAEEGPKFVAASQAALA
T4 sequence (P02770 25-608): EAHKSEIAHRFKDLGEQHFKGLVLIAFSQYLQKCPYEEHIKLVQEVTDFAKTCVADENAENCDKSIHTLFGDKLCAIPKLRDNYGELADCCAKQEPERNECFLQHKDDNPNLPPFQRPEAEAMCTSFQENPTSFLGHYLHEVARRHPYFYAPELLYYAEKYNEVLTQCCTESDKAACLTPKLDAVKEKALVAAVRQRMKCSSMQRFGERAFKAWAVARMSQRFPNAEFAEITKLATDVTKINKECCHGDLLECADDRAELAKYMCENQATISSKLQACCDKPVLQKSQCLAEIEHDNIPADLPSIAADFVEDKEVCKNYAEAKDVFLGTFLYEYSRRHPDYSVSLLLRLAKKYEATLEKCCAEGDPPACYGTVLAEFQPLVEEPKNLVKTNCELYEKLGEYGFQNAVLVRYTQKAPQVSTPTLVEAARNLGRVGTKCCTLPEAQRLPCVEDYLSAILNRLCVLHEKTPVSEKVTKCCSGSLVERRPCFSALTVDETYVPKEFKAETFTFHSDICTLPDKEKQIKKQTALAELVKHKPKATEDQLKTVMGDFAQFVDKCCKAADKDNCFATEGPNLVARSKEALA
T2 sequence (P02768 25-609): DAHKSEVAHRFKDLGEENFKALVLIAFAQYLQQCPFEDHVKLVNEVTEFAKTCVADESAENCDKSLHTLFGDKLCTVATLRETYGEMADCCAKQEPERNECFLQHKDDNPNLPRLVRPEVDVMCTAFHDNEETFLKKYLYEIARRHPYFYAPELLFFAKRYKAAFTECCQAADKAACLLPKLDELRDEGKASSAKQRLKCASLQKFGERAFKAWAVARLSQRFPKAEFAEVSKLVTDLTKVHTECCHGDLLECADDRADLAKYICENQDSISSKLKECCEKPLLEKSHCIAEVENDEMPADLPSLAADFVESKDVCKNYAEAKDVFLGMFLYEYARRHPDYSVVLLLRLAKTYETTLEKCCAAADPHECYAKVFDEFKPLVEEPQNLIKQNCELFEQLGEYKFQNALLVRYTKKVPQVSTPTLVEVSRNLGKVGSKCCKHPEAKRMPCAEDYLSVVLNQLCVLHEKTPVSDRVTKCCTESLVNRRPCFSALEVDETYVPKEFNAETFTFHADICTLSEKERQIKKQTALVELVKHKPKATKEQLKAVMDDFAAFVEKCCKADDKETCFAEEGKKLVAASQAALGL

B1: ADX_6734_A02 (I43A/Y44E) (designed binder)
chain: MGVSDVPRDLEVVAATPTSLLISWDAPAVTVRYYRITYGREVQKYSDLGPLYAEQEFTVPGSKSTATISGLKPGVDYTITVYAVTGSGESPASSKPISINYRTEIDKPSQHHHHHH
- MSA DB ELISA (OD450) Ymax obs [1]: 100
- MSA DB ELISA (OD450) Ymin obs [1]: 3

B2: ADX_7016_A01 (parent PKE2 Adnectin) (designed binder)
chain: B1 chain with A53I, E54Y
notes: N-terminal Met may be cleaved; also called 2629_E06; ADX_2629_E06
- HSA Binding (RU) [2]: 54 RU
- Kd [3]: 4.38 nM
- koff [3]: 0.000391 s⁻¹
- kon [3]: 89400 M⁻¹ s⁻¹
- MSA Binding (RU) [4]: 95 RU
- koff [5]: 0.000428 s⁻¹
- Kd [6]: 2.8 nM
- koff [6]: 0.000668 s⁻¹
- kon [6]: 237000 M⁻¹ s⁻¹
- Kd [7]: 6.2 nM
- koff [7]: 0.000378 s⁻¹
- kon [7]: 61200 M⁻¹ s⁻¹
- Kd [8]: 8 nM
- koff [8]: 0.00143 s⁻¹
- kon [8]: 180000 M⁻¹ s⁻¹
- Kd [9]: 4.4 nM
- koff [9]: 0.000391 s⁻¹
- kon [9]: 89400 M⁻¹ s⁻¹
- Kd [10]: 3 to 6 nM
- koff [11]: 0.000378 s⁻¹
- kon [11]: 61200 M⁻¹ s⁻¹
- Kd [12]: 3 to 6 nM
- koff [13]: 0.00143 s⁻¹
- kon [13]: 180000 M⁻¹ s⁻¹
- koff [14]: 0.000668 s⁻¹
- kon [14]: 237000 M⁻¹ s⁻¹
- koff [15]: 0.000269 s⁻¹

B3: ADX_7016_C03 (Y44Q) (designed binder)
chain: B1 chain with A53I, E54Q
notes: Full His6-tagged entry; also called 6727_B03
- HSA Binding (RU) [2]: 14 RU
- MSA Binding (RU) [4]: 33 RU
- koff [5]: 0.0179 s⁻¹
- Kd [6]: 265 nM
- koff [6]: 0.0305 s⁻¹
- kon [6]: 115000 M⁻¹ s⁻¹
- Kd [7]: 889 nM
- koff [7]: 0.0285 s⁻¹
- kon [7]: 32100 M⁻¹ s⁻¹
- Kd [8]: 1340 nM
- koff [8]: 0.119 s⁻¹
- kon [8]: 89100 M⁻¹ s⁻¹
- Kd [9]: 1080 nM
- koff [9]: 0.0444 s⁻¹
- kon [9]: 41200 M⁻¹ s⁻¹
- MSA DB ELISA YMIN OBS (OD450) [16]: 1 OD450
- HSA kd/Parent kd [17]: 79.4
- MSA kd/Parent kd [18]: 41.9
- Kd [19]: 1080 nM
- koff [19]: 0.0444 s⁻¹
- kon [19]: 41200 M⁻¹ s⁻¹
- koff [15]: 0.0214 s⁻¹

B4: ADX_6727_H10 (L41S/K85S) (designed binder)
chain: B1 chain with L51S, A53I, E54Y, K95S
notes: Full His6-tagged entry
- HSA Binding (RU) [2]: 19 RU
- MSA Binding (RU) [4]: 35 RU
- koff [5]: 0.0146 s⁻¹
- MSA DB ELISA YMIN OBS (OD450) [16]: 1 OD450
- HSA kd/Parent kd [17]: 32
- MSA kd/Parent kd [18]: 34
- koff [15]: 0.0086 s⁻¹

The remaining lines, values ahead:

- HSA Binding (RU) [2]: 25 RU
- Kd [20]: 1430 nM
- koff [20]: 0.171 s⁻¹
- kon [20]: 119000 M⁻¹ s⁻¹
- MSA Binding (RU) [4]: 30 RU
- koff [5]: 0.0248 s⁻¹
- Kd [6]: 502 nM
- koff [6]: 0.0343 s⁻¹
- kon [6]: 68400 M⁻¹ s⁻¹
- Kd [7]: 666 nM
- koff [7]: 0.0161 s⁻¹
- kon [7]: 24200 M⁻¹ s⁻¹
- Kd [8]: 1130 nM
- koff [8]: 0.0558 s⁻¹
- kon [8]: 49400 M⁻¹ s⁻¹
- Kd [9]: 1430 nM
- koff [9]: 0.171 s⁻¹
- kon [9]: 119000 M⁻¹ s⁻¹
- MSA DB ELISA YMIN OBS (OD450) [16]: 1 OD450
- HSA kd/Parent kd [17]: 30.3
- MSA kd/Parent kd [18]: 57.8
- koff [15]: 0.00815 s⁻¹
B5: ADX_7016_E02 (L38T) (designed binder)
chain: B1 chain with L48T, A53I, E54Y
notes: Full His6-tagged entry; also called 6727_E08

- HSA Binding (RU) [2]: 33 RU
- MSA Binding (RU) [4]: 64 RU
- koff [5]: 0.00213 s⁻¹
- Kd [6]: 26.8 nM
- koff [6]: 0.00629 s⁻¹
- kon [6]: 235000 M⁻¹ s⁻¹
- Kd [7]: 83.7 nM
- koff [7]: 0.0032 s⁻¹
- kon [7]: 38200 M⁻¹ s⁻¹
- Kd [8]: 104 nM
- koff [8]: 0.0346 s⁻¹
- kon [8]: 331000 M⁻¹ s⁻¹
- Kd [9]: 68.1 nM
- koff [9]: 0.00426 s⁻¹
- kon [9]: 62500 M⁻¹ s⁻¹
- HSA kd/Parent kd [17]: 5.6
- MSA kd/Parent kd [18]: 5
- Kd [21]: 68.1 nM
- koff [21]: 0.00426 s⁻¹
- kon [21]: 62500 M⁻¹ s⁻¹
- koff [15]: 0.0015 s⁻¹
B6: ADX_7016_G01 (Y44S) (designed binder)
chain: B1 chain with A53I, E54S
notes: Full His6-tagged entry; also called 6727_G02
